B1: Spy 29-124 (wild type) (domain or fragment, Escherichia coli)
chain: SFKDLNLTDAQKQQIREIMKGQRDQMKRPPLEERRAMHDIIASDTFDKVKAEAQIAKMEEQRKANMLAHMETQNKIYNILTPEQKKQFNANFEKRLT
B2: Im7 L18A L19A L37A H40W (natural protein, E. coli, UniProt Q03708 1-87, looked up)
chain: MELKNSISDYTEAEFVQAAKEIEKENVAATDDVLDVALEWFVKITEHPDGTDLIYYPSDNRDDSPEGIVKEIKEWRAANGKPGFKQG
B3: wild-type (WT) E. coli Im7 (natural protein, UniProt Q03708 1-87, looked up)
chain: B2 chain with A18L, A19L, A37L, W40H
B4: Im7 L18A L19A L37A (natural protein, E. coli, UniProt Q03708 1-87, looked up)
chain: B2 chain with W40H

The series “crystal structure” concerns the molecule itself. The series can be described thus: crystal structure.
Series [1] deals with B1. Kind of series: crystal structure.
Series [2] addresses B1. The series can be described thus: other fluorescence titration.
The next series addresses T1, Spy H96L 29-124 (Escherichia coli, UniProt P77754 52-147, H96L).
T1 sequence: B1 chain with H69L
Kind of series: crystal structure.

Where a chain is given by its changes, count along the chain named. Names and notes keep the numbering of the source.

For B1, in “crystal structure”, the binding result is given as “binds”. In the case of Ac-ELFRQFYQLDAYPSGAWYYVPLGTQYTDAP-NH2 [bovine alpha casein S1 148-177 peptide], the binding result with Spy 29-124 (wild type) [1] is “binds”.

Turning to B2, the binding result with Spy 29-124 (wild type) [2] is listed as “binds”. For the molecule B3, the binding result in the series with Spy H96L 29-124 was “binds”. Still for that read-out and setting: the result for B4 reads “binds”. SISDYTEAEFVQLLKEIEKENVAATDDVLDVLLEHFVKIT [Im7 6-45 peptide]: the binding result with Spy 29-124 (wild type) [1] is “binds”.

For the origin of these results see publication PMC4937829 (Nature structural & molecular biology, 2016).
